Assay results as given in publication PMC10147376.

Molecular target: Flotillin A (FloA) tagged with hexa-histidine (floA-6xHis) (S. aureus Newman)
Experiment: pull-down; Ni-NTA (IMAC) affinity chromatography of S. aureus Newman membranes solubilised in 50 mM Tris HCl pH 8, 250 mM NaCl, 1% DDM, 4°C; FloA-His held, IsdF-3xFLAG in the 50 mM imidazole eluate detected by anti-FLAG blot; control strain with untagged FloA WT set to 1; called co-immunoprecipitation by the paper

Chain of Flotillin A (FloA) tagged with hexa-histidine (floA-6xHis) (S. aureus Newman) (A6QHB6 whole entry): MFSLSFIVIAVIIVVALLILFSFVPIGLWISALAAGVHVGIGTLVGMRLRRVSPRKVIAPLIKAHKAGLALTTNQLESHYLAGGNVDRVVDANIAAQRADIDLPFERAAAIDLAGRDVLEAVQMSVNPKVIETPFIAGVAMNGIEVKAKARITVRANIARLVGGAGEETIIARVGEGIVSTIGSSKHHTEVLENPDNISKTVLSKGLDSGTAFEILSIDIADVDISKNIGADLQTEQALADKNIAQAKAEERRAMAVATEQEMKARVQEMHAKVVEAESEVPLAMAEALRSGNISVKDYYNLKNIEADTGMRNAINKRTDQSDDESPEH

How did the fold IsdF-3xFLAG signal in the Ni-NTA eluate against the strain with untagged FloA WT (set to 1) turn out when “IsdF with a triple FLAG tag (pRB474:isdF-3xFLAG) (from UniProt Q2FHU7 1-322) (natural protein)” was run?
Its fold IsdF-3xFLAG signal in the Ni-NTA eluate against the strain with untagged FloA WT (set to 1) is 3 fold.
